Measurements: US20210388107A1

Columns and labels:
[1] = biological target: human SIRPα1 expressed on cells (human) (UniProt P78324); assay: flow cytometry, ExpiCHO-S cells
[2] = biological target: human SIRPαBIT expressed on cells (human) (UniProt P78324); assay: flow cytometry, ExpiCHO-S cells
[3] = biological target: cynomolgus monkey SIRPα expressed on ExpiCHO-S cells (cynomolgus monkey); assay: flow cytometry, ExpiCHO-S cells
[4] = biological target: human SIRPαBIT, extracellular domain 1-370, Avi-FXa-Fc tag (human); assay: SPR, captured biotinylated antigen
human SIRPαBIT, extracellular domain 1-370, Avi-FXa-Fc tag (human), sequence (chain, as listed by the source limits assumed): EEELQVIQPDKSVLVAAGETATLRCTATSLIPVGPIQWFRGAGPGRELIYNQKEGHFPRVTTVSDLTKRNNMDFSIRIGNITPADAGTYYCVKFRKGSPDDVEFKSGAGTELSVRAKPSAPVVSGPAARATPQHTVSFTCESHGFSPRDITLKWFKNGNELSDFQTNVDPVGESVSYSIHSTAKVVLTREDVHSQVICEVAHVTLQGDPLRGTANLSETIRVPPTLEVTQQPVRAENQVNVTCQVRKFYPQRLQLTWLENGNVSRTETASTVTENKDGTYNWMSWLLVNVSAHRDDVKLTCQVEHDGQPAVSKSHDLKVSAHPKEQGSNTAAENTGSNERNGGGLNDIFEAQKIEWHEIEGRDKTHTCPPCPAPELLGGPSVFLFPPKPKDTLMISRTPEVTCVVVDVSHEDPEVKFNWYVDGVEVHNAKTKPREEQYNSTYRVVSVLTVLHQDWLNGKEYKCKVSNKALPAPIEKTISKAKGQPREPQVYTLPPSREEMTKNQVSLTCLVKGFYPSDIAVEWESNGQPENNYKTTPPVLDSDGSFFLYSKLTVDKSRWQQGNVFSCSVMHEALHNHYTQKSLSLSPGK

[5] = biological target: human SIRPβ1v2, extracellular domain, Avi-FXa-Fc tag (human); assay: SPR, captured biotinylated antigen
human SIRPβ1v2, extracellular domain, Avi-FXa-Fc tag (human), sequence (chain, as listed by the source limits assumed): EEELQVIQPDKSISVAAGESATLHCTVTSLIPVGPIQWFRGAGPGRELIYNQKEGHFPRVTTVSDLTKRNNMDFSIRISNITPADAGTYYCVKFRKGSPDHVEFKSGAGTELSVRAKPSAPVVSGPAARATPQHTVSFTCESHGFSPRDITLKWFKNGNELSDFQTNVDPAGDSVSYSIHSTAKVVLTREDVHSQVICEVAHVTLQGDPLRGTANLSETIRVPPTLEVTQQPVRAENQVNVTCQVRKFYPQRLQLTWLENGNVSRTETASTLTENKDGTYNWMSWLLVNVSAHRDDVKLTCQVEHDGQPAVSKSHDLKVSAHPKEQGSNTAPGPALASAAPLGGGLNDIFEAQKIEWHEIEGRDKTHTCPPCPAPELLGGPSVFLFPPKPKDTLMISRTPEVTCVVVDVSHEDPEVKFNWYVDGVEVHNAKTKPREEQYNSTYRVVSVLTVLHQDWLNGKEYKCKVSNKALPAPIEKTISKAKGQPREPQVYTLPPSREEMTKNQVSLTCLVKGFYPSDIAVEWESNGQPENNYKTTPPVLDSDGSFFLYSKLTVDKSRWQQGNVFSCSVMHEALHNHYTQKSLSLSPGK

[6] = biological target: human SIRPβ1v1, extracellular domain, Avi-FXa-Fc tag (human); assay: SPR, captured biotinylated antigen
human SIRPβ1v1, extracellular domain, Avi-FXa-Fc tag (human), sequence (chain, as listed by the source limits assumed): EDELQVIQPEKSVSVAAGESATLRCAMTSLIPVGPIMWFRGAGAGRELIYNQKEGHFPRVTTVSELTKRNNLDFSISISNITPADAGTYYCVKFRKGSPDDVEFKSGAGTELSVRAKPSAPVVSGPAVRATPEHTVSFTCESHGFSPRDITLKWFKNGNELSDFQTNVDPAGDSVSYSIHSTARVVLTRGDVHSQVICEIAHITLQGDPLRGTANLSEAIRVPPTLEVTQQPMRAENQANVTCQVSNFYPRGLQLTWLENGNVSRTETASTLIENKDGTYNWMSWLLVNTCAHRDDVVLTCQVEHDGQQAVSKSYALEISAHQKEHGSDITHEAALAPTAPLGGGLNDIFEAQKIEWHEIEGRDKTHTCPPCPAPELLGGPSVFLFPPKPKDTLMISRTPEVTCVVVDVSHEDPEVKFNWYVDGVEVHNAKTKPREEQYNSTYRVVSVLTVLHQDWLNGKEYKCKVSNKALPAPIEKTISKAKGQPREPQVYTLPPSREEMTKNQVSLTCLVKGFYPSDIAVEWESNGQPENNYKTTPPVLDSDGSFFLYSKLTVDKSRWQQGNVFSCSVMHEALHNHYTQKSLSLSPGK

[7] = biological target: cynomolgus monkey SIRPα, extracellular domain, Avi-FXa-Fc tag (cynomolgus monkey); assay: SPR, captured biotinylated antigen
cynomolgus monkey SIRPα, extracellular domain, Avi-FXa-Fc tag (cynomolgus monkey), sequence (chain, as listed by the source limits assumed): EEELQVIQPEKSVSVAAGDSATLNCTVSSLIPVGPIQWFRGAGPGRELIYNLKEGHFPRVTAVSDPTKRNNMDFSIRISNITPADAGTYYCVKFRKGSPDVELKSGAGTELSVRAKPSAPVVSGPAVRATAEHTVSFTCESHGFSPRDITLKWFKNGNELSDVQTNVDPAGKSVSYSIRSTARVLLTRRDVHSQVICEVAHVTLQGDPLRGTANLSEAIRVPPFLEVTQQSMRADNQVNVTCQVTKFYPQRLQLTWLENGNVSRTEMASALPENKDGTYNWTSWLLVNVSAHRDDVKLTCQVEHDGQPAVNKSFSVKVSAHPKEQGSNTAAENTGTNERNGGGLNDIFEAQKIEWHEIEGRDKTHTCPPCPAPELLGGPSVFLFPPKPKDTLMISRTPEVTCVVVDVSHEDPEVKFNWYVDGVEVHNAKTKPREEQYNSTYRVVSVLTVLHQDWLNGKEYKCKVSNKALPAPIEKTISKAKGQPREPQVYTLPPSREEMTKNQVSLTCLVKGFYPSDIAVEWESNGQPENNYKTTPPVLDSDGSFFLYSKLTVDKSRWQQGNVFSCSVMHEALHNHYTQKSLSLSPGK

[8] = biological target: human SIRPα1 extracellular domain 1-370, Avi-FXa-Fc tag (human); assay: SPR, captured biotinylated antigen
human SIRPα1 extracellular domain 1-370, Avi-FXa-Fc tag (human), sequence (chain, as listed by the source limits assumed): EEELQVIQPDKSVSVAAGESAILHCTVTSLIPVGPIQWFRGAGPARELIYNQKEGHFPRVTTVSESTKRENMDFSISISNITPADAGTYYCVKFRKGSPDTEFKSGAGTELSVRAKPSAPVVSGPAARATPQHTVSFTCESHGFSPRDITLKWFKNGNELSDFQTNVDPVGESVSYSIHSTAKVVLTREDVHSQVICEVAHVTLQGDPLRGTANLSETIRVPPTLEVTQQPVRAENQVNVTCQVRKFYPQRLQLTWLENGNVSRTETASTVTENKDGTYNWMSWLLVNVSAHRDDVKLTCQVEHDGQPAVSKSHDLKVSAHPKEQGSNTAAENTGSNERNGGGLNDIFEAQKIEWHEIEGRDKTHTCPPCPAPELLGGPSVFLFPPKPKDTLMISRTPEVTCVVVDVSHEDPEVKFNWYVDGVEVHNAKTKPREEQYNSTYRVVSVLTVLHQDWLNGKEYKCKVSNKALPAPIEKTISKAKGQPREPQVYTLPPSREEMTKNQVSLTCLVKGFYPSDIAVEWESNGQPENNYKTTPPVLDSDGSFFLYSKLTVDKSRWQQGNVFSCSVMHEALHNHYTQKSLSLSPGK

[9] = biological target: human SIRPγ, extracellular domain, Avi-FXa-Fc tag (human); assay: SPR, captured biotinylated antigen
human SIRPγ, extracellular domain, Avi-FXa-Fc tag (human), sequence (chain, as listed by the source limits assumed): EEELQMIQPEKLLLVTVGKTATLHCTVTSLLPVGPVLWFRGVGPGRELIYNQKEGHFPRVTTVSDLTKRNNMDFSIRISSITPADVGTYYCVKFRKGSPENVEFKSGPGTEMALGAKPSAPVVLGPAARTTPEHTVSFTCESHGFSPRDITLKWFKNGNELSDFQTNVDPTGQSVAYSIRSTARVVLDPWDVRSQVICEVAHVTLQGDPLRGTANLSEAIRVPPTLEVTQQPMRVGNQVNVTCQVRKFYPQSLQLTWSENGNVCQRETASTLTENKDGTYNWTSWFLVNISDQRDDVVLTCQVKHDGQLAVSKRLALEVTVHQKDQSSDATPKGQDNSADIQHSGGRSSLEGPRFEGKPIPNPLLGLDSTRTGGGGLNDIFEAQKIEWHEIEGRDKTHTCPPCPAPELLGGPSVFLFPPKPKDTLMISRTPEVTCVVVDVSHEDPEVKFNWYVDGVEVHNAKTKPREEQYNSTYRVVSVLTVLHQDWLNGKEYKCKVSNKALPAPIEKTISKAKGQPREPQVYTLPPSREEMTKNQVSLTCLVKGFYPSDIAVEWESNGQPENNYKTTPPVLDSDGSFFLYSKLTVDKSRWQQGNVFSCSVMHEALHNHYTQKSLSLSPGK

[10] = biological target: human SIRPβ1v2, AVI-tagged, biotinylated, monomeric form (human) (UniProt Q5TFQ8); assay: SPR, captured monomeric antigen
human SIRPβ1v2, AVI-tagged, biotinylated, monomeric form (human), sequence (Q5TFQ8 30-371): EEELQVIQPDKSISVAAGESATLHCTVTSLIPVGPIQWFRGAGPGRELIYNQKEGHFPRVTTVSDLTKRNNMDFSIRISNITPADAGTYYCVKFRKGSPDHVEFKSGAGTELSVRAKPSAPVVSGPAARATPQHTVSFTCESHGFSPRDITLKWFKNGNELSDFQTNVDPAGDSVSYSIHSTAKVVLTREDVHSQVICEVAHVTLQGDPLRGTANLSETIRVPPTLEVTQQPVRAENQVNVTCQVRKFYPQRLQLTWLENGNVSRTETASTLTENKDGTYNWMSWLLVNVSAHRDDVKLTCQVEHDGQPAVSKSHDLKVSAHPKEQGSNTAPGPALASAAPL

[11] = biological target: human SIRPβ1v1, AVI-tagged, biotinylated, monomeric form (human) (UniProt O00241); assay: SPR, captured monomeric antigen
human SIRPβ1v1, AVI-tagged, biotinylated, monomeric form (human), sequence (O00241 30-371): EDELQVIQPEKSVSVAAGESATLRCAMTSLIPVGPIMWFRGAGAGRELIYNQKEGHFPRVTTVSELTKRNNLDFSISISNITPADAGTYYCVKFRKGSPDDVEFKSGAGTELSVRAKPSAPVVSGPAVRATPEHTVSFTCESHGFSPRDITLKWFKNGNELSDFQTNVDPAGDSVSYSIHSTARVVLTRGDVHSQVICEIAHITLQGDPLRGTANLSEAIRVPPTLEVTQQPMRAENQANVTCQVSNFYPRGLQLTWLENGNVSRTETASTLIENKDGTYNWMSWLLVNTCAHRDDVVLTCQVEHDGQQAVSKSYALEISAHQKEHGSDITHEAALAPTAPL

[12] = biological target: human SIRPαBIT expressed on cells (human) (UniProt P78324); assay: flow cytometry, U937 cells

human SIRPαBIT expressed on cells (human), sequence (P78324 31-504 limits assumed): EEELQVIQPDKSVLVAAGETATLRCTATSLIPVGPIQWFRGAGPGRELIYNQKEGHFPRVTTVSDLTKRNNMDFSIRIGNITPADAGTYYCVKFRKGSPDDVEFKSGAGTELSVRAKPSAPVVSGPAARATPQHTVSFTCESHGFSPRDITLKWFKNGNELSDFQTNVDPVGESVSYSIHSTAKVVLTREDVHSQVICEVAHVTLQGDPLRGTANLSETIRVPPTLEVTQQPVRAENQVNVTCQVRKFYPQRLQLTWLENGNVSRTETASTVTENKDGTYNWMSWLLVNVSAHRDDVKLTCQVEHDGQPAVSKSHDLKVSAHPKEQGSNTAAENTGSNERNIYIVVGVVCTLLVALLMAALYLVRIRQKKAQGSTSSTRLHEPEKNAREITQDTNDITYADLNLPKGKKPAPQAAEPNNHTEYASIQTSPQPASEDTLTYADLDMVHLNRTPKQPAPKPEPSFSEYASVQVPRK

Substance: SE5A5 (mouse IgG1κ, Biolegend, purified anti-human CD172a/b) (antibody)
- EC50 [1]: 0.09 µg/mL
- EC50 [2]: 0.62 µg/mL
- EC50 [3]: 0.05 µg/mL
- Kd [4]: 0.798 nM
- Kd [5]: 0.287 nM
- Kd [6]: 0.0382 nM
- Kd [7]: 1.8 nM
- Kd [8]: 0.0154 nM
- Kd [9]: 2.66 nM
- Kd [10]: 0.358 nM
- Kd [11]: 0.0631 nM
- EC50 [12]: 1.48 µg/mL
